Measurements reported in the DeepSol protein solubility set.

Assay: soluble on expression in E. coli; label from the status in PepcDB or PDB records

Sequence	soluble on expression in E. coli
MISVCIATYNGEKYLAEQLDSILLQVSEEDELIISDDGSTDHTLEILRTYAANYPQIQLLQGPGQGVIANFAFALTHTKGEVIFLADQDDVWLPNKVTTVTEYFETHPDIQVVISDLKIVDADLQVTNPSYFKFRKVKPGFWRNAIKSGYIGAGMAFRQEMKNVILPIPPEVPMHDMWIGLLAARKKQTGLIKEPLVLYRRHGANVSPIITKTSFQQKLNWRVNLLKALHQRLKEQRLEHHHHHH	soluble
AHHHHHHGSKTLKVYIPGIKFPSISVTGNYCALNCAHCGRHYLEGMKKITRLNLVDKCVEMEKEGYVGCLLSGGMDSRLKVPLDKFKDEIREIKEKTRLKINAHVGFIDEDDLEWLKYIDVVSLDFVGDNEVIKRVYKIDKTVNDYLKILDILTKERIKVAPHITIGLDFGRIHWEYEAIDLLSEYPIDVLVLNILIPTPGTEMENVKVSMEEALNVVRYAREEFKGELSIGCMRPFGRWREEFDKRAILIGVDRITNPPRKVIEWAKQFRKVEIHFECCVI	not soluble
MKRIVVKVGSHVISEENTLSFERLKNLVAFLAKLMEKYEVILVTSAAISAGHTKLDIDRKNLINKQVLAAIGQPFLISVYNELLAKFNKLGGQILLTGKDFDSRKATKHAKNAIDMMINLGILPIINENDATAIEEIVFGDNDSLSAYATHFFDADLLVILSDIDGFYDKNPSEFSDAKRLEKITHIKEEWLQATIKTGSEHGTGGIVTKLKAAKFLLEHNKKMFLASGFDLSVAKTFLLEDKQIGGTLFE	soluble
MGSDKIHHHHHHMNNKIYFTPGPSELYPTVRQHMITALDEKIGVISHRSKKFEEVYKTASDNLKTLLELPSNYEVLFLASATEIWERIIQNCVEKKSFHCVNGSFSKRFYEFAGELGREAYKEEAAFGKGFYPADITVPADAEIICLTHNETSSGVSMPVEDINTFRDKNKDALIFVDAVSSLPYPKFDWTKIDSVFFSVQKCFGLPAGLGVWILNDRVIEKSKALLAKRKSIGTYHTIPSMLEKARVNQTPETPNAMNIFLLGKVTGDMLQISADGIRKQTEEKAALINTYIESSKVFSFGVEDAKLRSMTTIVANTTMLPGEINKILEPFDMAVGAGYGSKKETQIRIANFPAHSLEQVHKLVQTLKEKIG	not soluble
MGSDKIHHHHHHMADNETIPSCANCSAVWQKSGTTNCWSSPDNRPGQPANCPSKTSPDIIDESFAEYRGDGDDARLARVAARVEGLCYQKMQGSDAVVARWTRVEDTVALAKLMGWTKVGIATCIGLLEETKQLVTILEAQGLEPASVCCKSGSIDKLELGLEESDKVRPGTFEPACNPIAQAEILNRCGTQMNIIVGLCVGHDMLFTKHSKAPVTTLVCKDRVTGHNPAAVLYGQNFYYKRLKVQPVAVPTEEK	not soluble
MGLYAISDLHLAFNLDKPMNIFGEEWSKHDEKIKKNWISKISEEDTVLIAGDISWSMDIENGEEDLNWIDCLPGKKIICKGNHDYWWKSITKLNNMYKSISFLQNNFFEYKDYAICGTRGWIDKSFDSFDEHDKKVYKREIIRLRLSLDAAVKKGYSKFIVMFHYPPFKDENSGSEFTEVLEEYKVEKAIYGHLHGPALKNISGSIVKNGVEYMLTSCDYIEFNPIKIDLKLEHHHHHH	soluble
MLTPMFCLAHISDMHLSPLPKPSFFELFGKRLTGYLNWQKKRKGQMATNTLETLIEALKKKNPDHLVISGDLVNLALDKEFEQARNWLLNQGQPQNISLTFGNHDAYVRGAFQKACTLFQPWITGDFPQKNAPPFPYIRIRKNVAIIGASSAIATPPFQASGYFGKMQAQALSQLLNEAARRNLFRVIMIHHPPFHHATSWHKKLWGIERFLEVIKHHGCELILHGHTHLPTLNIIKGKMGKIPIVGVASAAQAFGDTPPPAGFNFFSIEQFNQQWHCQLQRYSLINQNNEVACTETIDLLEHHHHHH	not soluble
MGSTSSLYAAIDLGSNSFHMLVVREVAGSIQTLTRIKRKVRLAAGLNSENDLSNEAMERGWQCLRLFAERLQDIPPSQIRVVATATLRLAVNAGDFIAKAQEILGCPVQVISGEEEARLIYQGVAHTTGGADQRLVVDIGGASTELVTGTGAQTTSLFSLSMGCVTWLERYFADRNLGQENFDAAEKAAREVLRPVADELRYHGWKVCVGASGTVQALQEIMMAQGMDERITLEKLQQLKQRAIHCGRLEELEIDGLTLERALVFPSGLAILIAIFTELNIQCMTLAGGALREGLVYGMLHLAVEQDIRSRTLRNIQRRFMIDIDQAQRVAKVAANFFDQVENEWHLEAISRDLLISACQLHEIGLSVDFKQAPQHAAYLVRNLDLPGFTPAQKKLLATLLLNQTNPVDLSSLHQQNAVPPRVAEQLCRLLRLAIIFASRRRDDLVPEMTLQANHELLTLTLPQGWLTQHPLGKEIIAQENQWQSYVHWPLEVH	not soluble
MLESMTGYGSAERSEKGMKVLVELRSVNNRFAEIGVKLPRQLLSWELEVRELIRASFQRGKISAFVQLQLEEAEALPVTVNPSKVRGYKALLETVRREAEIEAPVTLDHVLRFSEIFEPDHTILEHPDEIWPIAQSALIEAIGNLKEMRRKEGEELAIDFLSRIDEIERTLKEIKEIAAGNLETIRKRLASKISAIAGCDVEYSKDRLEMEIVMAAERLDITEECIRFSSHNKFFIEELNNSSSGSGRKLNFLLQEQLREANTIASKSQNADISQKVVHIKEELEKVREQLQNIE	soluble
MAHHHHHHMPPPLRSKAESVQREEVCQMVEPKRSMSVRDTLYGQLEFPPVIRILTNSPVVQRLRDLKQLGNSFYVYPGATHSRFEHSLGVCYLGMELYRSIVDGHREEHRDFGVPEIANLTREAAQKDMHCIGIAGLCHDLGHGPLSHLFESFVRSSARPEEVQLRKWSHEQASIMLLRKMWLENETELAELGFTESDLRYVELLINGLAPGKAWPDNVGRPKWARFTTEIIANKRSGLDVDKIDYIQRDSVACLGTPTFVSMSRLFQGARVVVGDNDETSIGYPDKLDGVIEEIFLARSHLHRIVYQHRVTKVIDLMTLDALRAAGDVFEVSNGKDGVMPLRSCVLHPDFYVHASDWIVLAILHGSNRTMAESWGSGASAEHRREKLAEACRILQRIHSRHLYTTIGSYRHSEQTLINAGRLNSVEGSSQEVKREVMIHELLSDIEVTNLDLSVKLREWSRQHNGMTAMEILQAEITQTAGDMDKKHNPVSATYFFNPRQSTHCRVEPHFSCNVTTTLFVKTGPVSSLVVVCRMPLTPQEKESLRVSFTSVADRLGKTDASSFSCTPMSQRGRAAESSQQAASVARDESAATPNHSLAGGERLTSSVSGGYPAAKRLRLDLDTQRSRRDDFDVDQSSEGVLQNDATTSSLELVTAAGYGQVGEKGQDDDDGEETDILSFS	not soluble
LEQYVVVSNYKKQENSELSLQAGEVVDVIEKNESGWWFVSTSEEQGWVPATYLEAQN	soluble
MSNSSMSVVILAAGKGTRMYSDLPKVLHPLAGKPMVQHVIDAAMKLGAQHVHLVYGHGGELLKKTLADPSLNWVLQAEQLGTGHAMQQAAPHFADDEDILMLYGDVPLISVDTLQRLLAAKPEGGIGLLTVKLDNPSGYGRIVRENGDVVGIVEHKDASDAQREINEINTGILVANGRDLKRWLSLLDNNNAQGEFYITDIIALAHADGKKIATVHPTRLSEVEGVNNRLQLSALERVFQTEQAEKLLLAGVMLLDPSRFDLRGELTHGRDITIDTNVIIEGHVILGDRVRIGTGCVLKNCVIGDDSEISPYTVLEDARLDANCTVGPFARLRPGAELAEGAHVGNFVEIKKARLGKGSKAGHLSYLGDAEIGAGVNIGAGTITCNYDGANKFKTIIGDDVFVGSDTQLVAPVTVANGATIGAGTTVTRDVAENELVISRVKQVHIQGWKRPVKKK	soluble
MNTLGRFLRLTTFGESHGDVIGGVLDGMPSGIKIDYALLENEMKRRQGGRNVFITPRKEDDKVEITSGVFEDFSTGTPIGFLIHNQRARSKDYDNIKNLFRPSHADFTYFHKYGIRDFRGGGRSSARESAIRVAAGAFAKMLLREIGIVCESGIIEIGGIKAKNYDFNHALKSEIFALDEEQEEAQKTAIQNAIKNHDSIGGVALIRARSIKTNQKLPIGLGQGLYAKLDAKIAEAMMGLNGVKAVEIGKGVESSLLKGSEYNDLMDQKGFLSNRSGGVLGGMSNGEEIIVRVHFKPTPSIFQPQRTIDINGNECECLLKGRHDPCIAIRGSVVCESLLALVLADMVLLNLTSKIEYLKTIYNEN	soluble
